From the RNAGym collection of RNA variant scans (doi:10.7554/elife.80360)

B1: Hammerhead Ribozyme (parent)
chain: ACCGGAUGUGCUUUCCGGUCUGAUGAGUCCGUGAGGACGAAACAG

Variants of: B1
Test: self-cleavage, relative activity (ratio to wild type); higher = more cleavage; co-transcriptional
ACCGGAUGUGCAUUCCGGUCUGAUGAGUCCGUAAGGACGAAACAG [U12A G33A] showed a self-cleavage of 1.08.
Work on ACCGGAUGUGCUUUCCGGUCUGAACAGUCCGUGAGGACGAAACAG [U24A G25C] yielded a self-cleavage of 0.366.
In the case of ACCGGAUGUGCUUUCCGGUCUGAUGAGUCCAUGAGGACCAAACAG [G31A G39C], the self-cleavage is reported as 0.377.
ACCAGCUGUGCUUUCCGGUCUGAUGAGUCCGUGAGGACGAAACAG [G4A A6C] gave a self-cleavage of 0.232.
ACCGGAUGUGCUUUCCGGUCAGCUGAGUCCGUGAGGACGAAACAG [U21A A23C] showed a self-cleavage of 0.474.
ACCCGAUGUGCUUUCCGGUCUGACGAGUCCGUGAGGACGAAACAG [G4C U24C] showed a self-cleavage of 0.631.
Variant ACCGGAUGUGCUUUCAGGUCUGAUGAGUCCGUGAGGGCGAAACAG [C16A A37G] has a self-cleavage of 0.874.
With ACCGGAUGUGCUUUCCUGUCUGAUGAGUCAGUGAGGACGAAACAG [G17U C30A] the self-cleavage was 0.583.
ACCGGAUGUGCUUGCCGGUCUGAUGAGUCCGUGAUGACGAAACAG [U14G G35U] gave a self-cleavage of 0.611.
ACCGGAUGUGCUUUCCCGUCUGAUGAGUCCGUGAGGAUGAAACAG [G17C C38U] gave a self-cleavage of 0.453.
For ACCGGAUGUCCUUUCCGGUCUGAUGAGUCCGUGAGGAGGAAACAG [G10C C38G], the self-cleavage was 0.582.
Work on ACCGGAUGUGCUUUCCGGGCUGAUGAGUCCGUCAGGACGAAACAG [U19G G33C] yielded a self-cleavage of 0.426.
With ACCGGAUGUGCUUUCCGGUCUAAUGAGUCUGUGAGGACGAAACAG [G22A C30U] the self-cleavage was 0.417.
Variant ACCGGAUGUGCUUUCCGGUCUGAUGAGACCGUGAGGACGAACCAG [U28A A42C] has a self-cleavage of 0.335.
GCCGGAUGUGCUUUCCGGUCUGAUGAGUCCGUGAGGACGACACAG [A1G A41C] showed a self-cleavage of 0.461.
Variant ACCGGAUGUGCUUUCCGGUCUGAUGAGUCCGUGAGGAGGAACCAG [C38G A42C] has a self-cleavage of 0.226.
ACCGGAAGUGCUUUCCGGUCUGAUGAGUCCGUGAGGACGAACCAG [U7A A42C] gave a self-cleavage of 0.358.
For ACCGGAUGUGCUUUCCGGUCUGAUGUGUCCGUGAGGGCGAAACAG [A26U A37G], the self-cleavage was 0.736.
In the case of ACCGGAUGAGCUGUCCGGUCUGAUGAGUCCGUGAGGACGAAACAG [U9A U13G], the self-cleavage is reported as 1.1.
ACCGGAUGUGCUUUCCGGUCAGAUGAGUCCGUGAGGACGAAACCG [U21A A44C] showed a self-cleavage of 0.415.
In the case of ACCGGAUUUGCUUUCCGGUCUGAUGAGUCCGUGAGGACGCAACAG [G8U A40C], the self-cleavage is reported as 0.566.
With ACCGGAUGUGCUUUCCGGUGUGAUGAGUCCGUGAAGACGAAACAG [C20G G35A] the self-cleavage was 0.287.
In the case of ACCGGAUAUGCUUUCCGGUCUGAUGAGUCCGUGAGGACGAUACAG [G8A A41U], the self-cleavage is reported as 0.323.
Variant ACCGGAUGUGCUUUCCGUUCUGCUGAGUCCGUGAGGACGAAACAG [G18U A23C] has a self-cleavage of 0.367.
For ACCGGAUGCGCAUUCCGGUCUGAUGAGUCCGUGAGGACGAAACAG [U9C U12A], the self-cleavage was 1.15.
Work on ACUGGAUGUGCUUUGCGGUCUGAUGAGUCCGUGAGGACGAAACAG [C3U C15G] yielded a self-cleavage of 0.382.
ACCGGAUGUGCUUUCCGGUCUGAUGAGUCCGUGAGGCCGAAACAA [A37C G45A] gave a self-cleavage of 0.404.
Variant ACCGGAUGUGCUUUCCGGUCGGAUGAGUCCGUGUGGACGAAACAG [U21G A34U] has a self-cleavage of 0.348.
With ACCGGAUGUGCUUUCCGGUCUGAUGAGACCGUGAGGACGAAAAAG [U28A C43A] the self-cleavage was 0.292.
In the case of ACCGGAUGUGCUUUCCGGUCUGAUGAGUACAUGAGGACGAAACAG [C29A G31A], the self-cleavage is reported as 0.606.
For ACCGGAUGUGCUUUCCGGUCUGAUGAGUACCUGAGGACGAAACAG [C29A G31C], the self-cleavage was 0.683.
In the case of ACCGGAUGUGCUUUCCGGUCUGAUGAGUCCGUGACGACGCAACAG [G35C A40C], the self-cleavage is reported as 0.466.
GCCCGAUGUGCUUUCCGGUCUGAUGAGUCCGUGAGGACGAAACAG [A1G G4C] showed a self-cleavage of 0.32.
For AGCGGAUGUGCUUUGCGGUCUGAUGAGUCCGUGAGGACGAAACAG [C2G C15G], the self-cleavage was 0.29.
In the case of ACCGGAUGUGCUAUCCGGUCUGAGGAGUCCGUGAGGACGAAACAG [U13A U24G], the self-cleavage is reported as 1.99.
Work on ACCGGAUGUGCUUUCAGGUCUGAUGAGUCCGAGAGGACGAAACAG [C16A U32A] yielded a self-cleavage of 1.07.
ACCGGAUGUGCUGUCCGGUCUGAUGAGUCCGUUAGGACGAAACAG [U13G G33U] showed a self-cleavage of 0.801.
ACCAGAUGUGCUUUCCGGUCUGAUGAGUGCGUGAGGACGAAACAG [G4A C29G] gave a self-cleavage of 0.357.
ACCGCAUGUGCUUUCCGGGCUGAUGAGUCCGUGAGGACGAAACAG [G5C U19G] showed a self-cleavage of 0.281.
In the case of ACCGGAUGUGCUUUCCGGUCUGUUGAGUCCGUGAGGACGAAACUG [A23U A44U], the self-cleavage is reported as 0.336.
In the case of ACCGGAUGUGCUUUCCGGUCUGAUGAGCCCGGGAGGACGAAACAG [U28C U32G], the self-cleavage is reported as 0.556.
With ACCGGAUGUGCUUUCCGGUCUGAUAAGACCGUGAGGACGAAACAG [G25A U28A] the self-cleavage was 0.342.
ACCUGAUGUGCAUUCCGGUCUGAUGAGUCCGUGAGGACGAAACAG [G4U U12A] gave a self-cleavage of 0.547.
In the case of ACCGGAUGUGCUUUCCGGUCUGAUGAAUCCGUGAGGACUAAACAG [G27A G39U], the self-cleavage is reported as 0.348.
ACCAGAUGUGCUUUCCGGUCUGAUGAGUCCGUGAGAACGAAACAG [G4A G36A] showed a self-cleavage of 0.367.
With ACCGGAUGUGCGUUCCGGUCUGAUGAGUGCGUGAGGACGAAACAG [U12G C29G] the self-cleavage was 0.736.
With ACCGGAUGUGCUUUCCGGUCUGAUGCGUCCGUGAAGACGAAACAG [A26C G35A] the self-cleavage was 0.431.
Variant ACCGGAUGUGCUUUCCGGACUGAUGAGUCCGUGCGGACGAAACAG [U19A A34C] has a self-cleavage of 0.32.
In the case of ACCGGAUGUGCUUUCCGGUCUGAUGGGUCCGUGGGGACGAAACAG [A26G A34G], the self-cleavage is reported as 0.305.
ACCGGAUGUGCUUUCGGGUCUGAUGAGUCCGUGAGGACAAAACAG [C16G G39A] gave a self-cleavage of 0.254.
Variant ACCGGAUGUGGUUUCCGGUCUGAUGAGUCCGUGAGGACGUAACAG [C11G A40U] has a self-cleavage of 0.273.
ACCGGAUGUGCUUUCCGCUCUGAUGAGUCCAUGAGGACGAAACAG [G18C G31A] gave a self-cleavage of 0.649.
Work on ACCGGUUGUGCUUUCCGGUCUGAUGAGUCCCUGAGGACGAAACAG [A6U G31C] yielded a self-cleavage of 0.704.
ACCGGAUGUGCUUUCCGGCCUGAUGAGUUCGUGAGGACGAAACAG [U19C C29U] showed a self-cleavage of 0.491.
For ACCGGAUGUGCAUUCCGGUCUGAUGAGUCCGUGACGACGAAACAG [U12A G35C], the self-cleavage was 0.653.
Work on ACCGGAUGUGCUUUCCGGUCUGAUGAGUCCGGGAGGACGAAACAG [U32G] yielded a self-cleavage of 0.769.
Variant ACCGGAUGUGCUUUCUGGUCUGAUGAGUCCGUGAGGACAAAACAG [C16U G39A] has a self-cleavage of 0.327.
